Target: the molecule itself
Assay: single-molecule photobleaching step counting

B1: HCN1SM (human HCN1 with amino acids 636-865 deleted, N-terminal Twin-strep tag and eGFP) (complex, UniProt O60741 1-890, looked up)
chain: MEGGGKPNSSSNSRDDGNSVFPAKASATGAGPAAAEKRLGTPPGGGGAGAKEHGNSVCFKVDGGGGGGGGGGGGEEPAGGFEDAEGPRRQYGFMQRQFTSMLQPGVNKFSLRMFGSQKAVEKEQERVKTAGFWIIHPYSDFRFYWDLIMLIMMVGNLVIIPVGITFFTEQTTTPWIIFNVASDTVFLLDLIMNFRTGTVNEDSSEIILDPKVIKMNYLKSWFVVDFISSIPVDYIFLIVEKGMDSEVYKTARALRIVRFTKILSLLRLLRLSRLIRYIHQWEEIFHMTYDLASAVVRIFNLIGMMLLLCHWDGCLQFLVPLLQDFPPDCWVSLNEMVNDSWGKQYSYALFKAMSHMLCIGYGAQAPVSMSDLWITMLSMIVGATCYAMFVGHATALIQSLDSSRRQYQEKYKQVEQYMSFHKLPADMRQKIHDYYEHRYQGKIFDEENILNELNDPLREEIVNFNCRKLVATMPLFANADPNFVTAMLSKLRFEVFQPGDYIIREGAVGKKMYFIQHGVAGVITKSSKEMKLTDGSYFGEICLLTKGRRTASVRADTYCRLYSLSVDNFNEVLEEYPMMRRAFETVAIDRLDRIGKKNSILLQKFQKDLNTGVFNNQENEILKQIVKHDREMVQAALPRESSSVLNTDPDAEKPRFASNL
In the case of B1, the “stoichiometry N” value is reported as 4.

Source: PMC8513821 (Nature, 2021)
